Results: the supplement of paper PMC10724198
± gives the standard deviation of the averaged measurements.

system: Saccharomyces cerevisiae; experiment: protein stability index of tFT-peptide fusion (C-terminal peptide) (PSI (0-1 scale)); higher = more stable (slower turnover); conditions: genetic background: wild type; temperature: 30 C
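Also: PSI is a weighted mean of sequencing reads over stability bins, variants kept only with over 10 reads, mCherry proximal and sfGFP distal, peptide attached via GGGS linker.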

Sequence	protein stability index
TGRWRWMRDLLS	0.63 ± 0.032
PPSSPLRRRTTS	0.725 ± 0.078
PRPCPASSPRPP	0.627 ± 0.083
AVNFESSHPICA	0.58 ± 0.0073
GLRRWLSTAMRR	0.7339 ± 0.0033
YLLKRSQSLLII	0.5 ± 0.014
SIGAGSSGVGQE	0.685 ± 0.037
RTRPALPSPPPH	0.725 ± 0.022
PPPPPRPSPHPP	0.62 ± 0.058
SHSKSQRRFQTR	0.637 ± 0.093
SPRGLQSAPSGI	0.7399 ± 0.0057
PPPVDLPTRLIP	0.642 ± 0.0073
RPHEAPTPGPVR	0.646 ± 0.013
DVLLKVDATKTP	0.685 ± 0.032
CHMSLDGPLLGF	0.728 ± 0.2
FPPTGPPYFPPT	0.615 ± 0.062
PPPPPPPPPTFL	0.708 ± 0.017
EREALKSCIIRA	0.641 ± 0.014
RGPPPTSPPSPP	0.664 ± 0.013
DLFSALWGEYVL	0.741 ± 0.013
GWRVSQVLGGDR	0.741 ± 0.042
FLQAKSQGEHFR	0.694 ± 0.012
CFTPYNPSPLLS	0.715 ± 0.021
AYFGSCCCLPLG	0.69 ± 0.039
KHRGAQRSRARH	0.645 ± 0.012
SSSPFVSDFLTL	0.673 ± 0.042

Sequence	protein stability index
PPASPRSPIVSR	0.723 ± 0.059
CVGCVVGAGVTS	0.684 ± 0.049
SPHVAPRKLQVS	0.56147 ± 0.00038
CKIDGGIIRTCR	0.676 ± 0.023
KIIARMEKGKEI	0.771 ± 0.042
LAAVAAGDVGGG	0.674 ± 0.035
KTKNEKHPKTTK	0.766 ± 0.045
AQSYPHPPPPPP	0.644 ± 0.041
PRPPSPRAPPPH	0.631 ± 0.067
WGAGRGGAFFSG	0.6576 ± 0.0062
RPPPPASPPSAP	0.588 ± 0.076
LRLLCVSGSSVR	0.638 ± 0.065
GGVVGGRAGRGG	0.617 ± 0.033
LPPPFPSPPRPP	0.617 ± 0.14
SSSLSRLIPRDV	0.774 ± 0.062
GVGGVCEMVAIK	0.506 ± 0.028
GEQAGLSLTAGP	0.678 ± 0.03
AGARLEWVVAGR	0.7539 ± 0.0045
ALPNPLLPPAPP	0.612 ± 0.026
GGRGRWEMVGRT	0.7 ± 0.021
RMRTGTKCLSAG	0.705 ± 0.17
WSVVGVGGCGAR	0.712 ± 0.041
PLPPSPLESVDT	0.637 ± 0.027
VATGVFADPMMC	0.667 ± 0.11
LQFGHGDFRSTV	0.713 ± 0.093
PPPPAHPPPRSP	0.741 ± 0.035

Sequence	protein stability index
VSPLDSPASLYS	0.6573 ± 0.0062
IKKKKKKKQRKQ	0.65 ± 0.069
YCGCSLSEMSWV	0.741 ± 0.037
PPSPPAPSPTPP	0.721 ± 0.038
FLFPTLSPITGC	0.612 ± 0.05
VLVTWLESVGGL	0.634 ± 0.027
ACVPGGFVWGGV	0.754 ± 0.065
PPPLRTHTGPPP	0.678 ± 0.0069
YGGGGWRGVALG	0.65 ± 0.043
VSPPLHFLPLHF	0.6661 ± 0.004
PVGWRGGYVGGR	0.666 ± 0.092
VRVGNYTRARCK	0.714 ± 0.035
GGSEEGGKAAKT	0.652 ± 0.015
TLPDSSSTSPNL	0.696 ± 0.063
VGRERGRAACGE	0.662 ± 0.049
GRGDNRKVDGEG	0.671 ± 0.061
TGWWSPCRLDSS	0.722 ± 0.024
PSPTPLPSPRLP	0.676 ± 0.098
WGRRGSRGSWGA	0.733 ± 0.028
VVFKPHEVRTSD	0.717 ± 0.054
PAPSAPLLRTRP	0.6702 ± 0.0019
RSHPPPPVSRSP	0.651 ± 0.045
EALELALTWHCV	0.7029 ± 0.0058
SIPLYAKNSSLP	0.722 ± 0.042
RKRIPSITLPPP	0.754 ± 0.063
SKTQRKQIIKKQ	0.638 ± 0.056

Sequence	protein stability index
RNCSSALPPPPS	0.7154 ± 0.0028
FGGNISIPRSCD	0.7233 ± 0.004
YRLAPVSLTMSS	0.706 ± 0.045
GPFRRLRCTAFI	0.713 ± 0.059
PHPPLPPPPPPP	0.702 ± 0.018
PTPLPSPCPAPP	0.703 ± 0.025
VGGIGKGSWRWM	0.6466 ± 0.0034
PPDLPTRSPDNP	0.658 ± 0.04
LLRLVFHLETSS	0.547 ± 0.081
QLGRVSRLVGVC	0.537 ± 0.0081
VVWVCVRLPVRR	0.53046 ± 0.00025
YLGTETSLTSLK	0.786 ± 0.088
LKPMSRKSLRSM	0.715 ± 0.022
SPAPRPSPVPGL	0.686 ± 0.015
LSTAWFYFSLLF	0.635 ± 0.072
ENMVLQKRGIKV	0.5024 ± 0.0049
CRGYRFLSEMKV	0.645 ± 0.07
PLVVETNRFGDV	0.6988 ± 0.004
CVLFYPLLLPGV	0.599 ± 0.035
PPPPPPPPPPRA	0.723 ± 0.035
TPDLNLYSKVYG	0.695 ± 0.048
PSHPPPPSPTPP	0.754 ± 0.024
FCGLWGVGGVAE	0.704 ± 0.025
PRSPHPLPPTPP	0.666 ± 0.0084
SLPRPPVPLLPS	0.707 ± 0.017
QAGALTTIPTFA	0.616 ± 0.019

Sequence	protein stability index
SWVIRSDLHYAL	0.731 ± 0.032
RSKDEKNKIGYK	0.683 ± 0.044
GHAPSSCPPPPR	0.692 ± 0.062
GSCGCLSVVSGR	0.713 ± 0.044
KIKEKNEKRELI	0.686 ± 0.11
TKIQFTITLIGK	0.578 ± 0.028
GGSRRGRRLLTQ	0.699 ± 0.037
KKKKFQDQKIDE	0.629 ± 0.0068
CLSCLFFRVFAD	0.573 ± 0.08
RAPDHRPGRLQK	0.724 ± 0.013
YFPFPPPLLSPP	0.766 ± 0.02
KMNKTEYINGMT	0.652 ± 0.038
PSCCPPATLPPP	0.687 ± 0.056
LGLRSGQGPVTL	0.7746 ± 0.00092
RLGGRGRGSIHS	0.652 ± 0.022
DLMFSLFPLSFF	0.704 ± 0.0076
VKEKRDLSNYNI	0.677 ± 0.037
RSSKCRGQKGLG	0.687 ± 0.014
TLSHPANNKNNL	0.681 ± 0.047
GGLVTSGGWRCA	0.71 ± 0.065
PAPPPPPPRPPP	0.669 ± 0.071
GTKGEGGGKGGV	0.693 ± 0.038
SGLLSPHTHMFP	0.598 ± 0.048
GVGLWGVGFRGG	0.7 ± 0.034
WGVVGEWAGVGR	0.747 ± 0.052
PRPPRAPPPLPS	0.643 ± 0.1

Sequence	protein stability index
VFAPWLFLFGFF	0.521 ± 0.017
PSPPPLPPLPPP	0.764 ± 0.12
EEMMGGAETLHQ	0.649 ± 0.036
FLPPPLAAPFLF	0.669 ± 0.059
LGDGAVVAEESG	0.642 ± 0.062
LGVSVVEPGRVR	0.702 ± 0.04
EKKDKKKRKEKG	0.674 ± 0.028
PSRSPPPLPAPH	0.69 ± 0.011
PPPLSSPPPRPL	0.709 ± 0.058
GQGACWLCVGGR	0.685 ± 0.02
LVSLVGVGWGCG	0.729 ± 0.023
LLPSPLSLTFPL	0.616 ± 0.013
IKIRIAANRTKY	0.63796 ± 0.00029
EGRGSVVGSSEG	0.633 ± 0.035
PTGPPPPSLGPP	0.694 ± 0.021
IQRLGTKNTNRI	0.647 ± 0.039
AVGGGVVGQGWV	0.604 ± 0.012
SPPCPFPTPACP	0.7165 ± 0.002
GFSRELTLARLI	0.613 ± 0.017
CGSGVAVGVLVL	0.6 ± 0.038
PPYPRRWAPLGP	0.6872 ± 0.0051
MLLLWRVPQCGE	0.638 ± 0.055
QKPKDKKKRTKE	0.679 ± 0.05
RPALRPSPPLSP	0.682 ± 0.056
KNVVSVRWERNE	0.635 ± 0.084
WLIKKIKTKQTR	0.758 ± 0.074

Sequence	protein stability index
RLFSAWGCGLPL	0.7 ± 0.019
PAPSLPPPRLAP	0.653 ± 0.026
HRTKRPKTKRPP	0.628 ± 0.036
ALPRFPATSFPT	0.695 ± 0.04
REGKGREQGRKK	0.616 ± 0.053
LPACPHPPPLPD	0.6594 ± 0.0047
FSPHTPPRRLPL	0.721 ± 0.066
RRNESHAGGRGP	0.778 ± 0.07
VCSVLFPFLPLP	0.7043 ± 0.0056
GPSRKCPFDVVS	0.6654 ± 0.0021
FGSLMFCLLPLH	0.6527 ± 0.0026
PIPSVFSPFLFA	0.641 ± 0.015
KGDPKLTKKKPL	0.613 ± 0.077
FGNFCCRWSLGP	0.66 ± 0.12
PPPPPATRPSSL	0.674 ± 0.018
KRLEFLTHAVFK	0.7281 ± 0.0025
GSGRNKGLWRIW	0.725 ± 0.04
GGRSGGWCGCWG	0.711 ± 0.032
ICVSGALMARAL	0.6798 ± 0.0036
PSPLRPSPAVPS	0.716 ± 0.064
PPPPRLPLDPPL	0.658 ± 0.041
HSPPRPPFHPRF	0.70091 ± 0.0004
PPACAHPLFWTL	0.6499 ± 0.00087
ATPNRSKNKHDT	0.679 ± 0.0011
PPPPPPLAAPPS	0.7098 ± 0.0053
GGGVWGVGRGIL	0.6 ± 0.013

Sequence	protein stability index
GGGGGCLSGRLG	0.654 ± 0.028
APSPPTRYLPLF	0.684 ± 0.019
RSSPVPLSCRKG	0.66 ± 0.037
EITRNKRRCARR	0.674 ± 0.14
PRLSTYPDSPGS	0.71038 ± 0.00066
TMRSVSLRSVAS	0.675 ± 0.022
PRPPPPARSPPS	0.66 ± 0.06
NYRPAHSFGVIS	0.725 ± 0.018
VSWFVGFCLWFP	0.5506 ± 0.0025
KVGGRGQGVKLG	0.629 ± 0.034
GGDIRGGVRHIG	0.725 ± 0.026
PLAPPPSILPVP	0.703 ± 0.055
RWAVYDKNRETP	0.657 ± 0.05
TFAALRVFSFLS	0.666 ± 0.052
PQWVSIGSACCQ	0.754 ± 0.076
GGGGGGGWGAVG	0.688 ± 0.0076
FTSGNSWLAVFL	0.731 ± 0.027
VVEGVFGQRFAG	0.701 ± 0.033
PGAFLRLSPPRA	0.7019 ± 0.0013
GFVRYPYFAFGR	0.687 ± 0.093
